Experiments:
[1] = Protease-evoked mechanical hyperalgesia, von Frey paw withdrawal; format: in vivo, mice; conditions: ipsilateral paw
Method: (§1) Immediately before experiments the mice were acclimatized to the experimental apparatus, room and investigator for 1-2 h on 2 successive days. Mechanical nociceptive responses were evaluated by paw withdrawal to stimulation of the plantar surface of the hind-paw with calibrated von Frey filaments. von Frey scores were measured in triplicate to establish a baseline for each animal on the day before experiments. Paw edema was estimated by measuring the thickness of the hindpaw using digital calipers before and after treatments. Mice were […] with 5% isoflurane for intraplantar injections. Dyngo4a (50 μM), PitStop2 (50 μM) or vehicle (0.2% DMSO in 0.9% NaCl) (all 10 μl) were injected into the left hindpaw. After 30 min, trypsin (10 nM), Cat-S (2.5 μM) or elastase (30 U) (all 10 μl) were injected into the same left hindpaw. von Frey scores (left and right paws) and paw thickness (left paw) were measured hourly for up to 4 h after protease injection. Investigators were blinded to the test agents.

[2] = system: PAR2; assay: BRET receptor trafficking, PAR2-RLuc8 with plasma membrane marker RIT-venus in HEK293 cells; format: cell-based; conditions: trypsin 10 nM
Method: (§2) Bret studies of receptor trafficking were conducted to quantify PAR2 internalisation (RIT-venus) and trafficking to early endosomes (Rab5a-venus) upon stimulation with different agonists.
(§3) After achieving ˜50% confluency within 10 cm dishes HEK293 cells were transiently transfected with 1 μg PAR2-RLuc8 and 4 μg of either RIT-venus or Rab5a-venus using PEI as a transfection agent. 24 hours post transfection, cells were seeded into poly-D-lysine coated 96-well isoplates. […] When used endocytic inhibitors were diluted in 1×HBSS+1% dimethyl sulfoxide (DMSO). Following the replacement of culture media cells were allowed to equilibrate at 37° C. for 30 minutes before the addition of colenterazine H [5 μM]. After a further 5 minute incubation BRET was assessed using a LUMIstar Omega microplate reader (BMG LabTech, Offenburg, Germany), with luminescence being read at 535 nm and 475 nm. A 4 minute baseline was obtained before the addition of vehicle (1×HBSS+/−1% DMSO) or protease, measurements were then continued for a further 30 minutes. BRET ratios were calculated using LUMIstar MARS analysis software and then corrected to baseline and vehicle treatments in Microsoft Excel 2013.

[3] = Protease-evoked paw edema, hindpaw thickness; format: in vivo, mice; conditions: ipsilateral paw
Method: as §1

[4] = system: PAR2; assay: BRET proximity of PAR2 to KRas (plasma membrane) and Rab5a (endosomes) in HEK cells; format: cell-based; conditions: HEK cells
Method: (§4) The contribution of endocytosis of protease-activated receptor-2 (PAR2) was evaluated for generation of signals in subcellular compartments that mediate protease-evoked sensitization of nociceptors. Bioluminescence resonance energy transfer (BRET) was used to assess the proximity of PAR2 to resident proteins of the plasma membrane (KRas) and endosomes (Rab5a) in HEK cells. […] Förster resonance energy transfer (FRET) biosensors targeted to the plasma membrane, cytosol or nucleus were used to examine the capacity of proteases to generate signals in subcellular compartments of HEK cells and rat dorsal root ganglia neurons. […] Dynamin inhibitor Dyngo4a, Clathrin inhibitor Pitstop2 and dominant negative β-arrestin inhibited trypsin-evoked endocytosis of PAR2, and prevented trypsin-evoked activation of cytosolic cAMP and PKC and nuclear ERK. […] To examine the link between PAR2 endocytosis, compartmentalized signaling and nociceptor sensitization, perforated patch clamp recordings were made from mouse dorsal root ganglia neurons. […] The effects of proteases on excitability were blocked by the PAR2 antagonist GB88. Thus, canonical and biased proteases sensitize nociceptors by distinct mechanisms. For canonical agonists, PAR2 endocytosis generates compartmentalized signals subcellular compartments that underlie sustained excitability of nociceptive neurons. […]

[5] = system: PAR2; assay: FRET biosensors for compartmentalised cAMP, PKC and ERK signals in HEK cells and rat dorsal root ganglia neurons; format: cell-based
Method: as §4

[6] = system: DRG neurons; assay: Perforated patch-clamp excitability (rheobase) of isolated DRG neurons; format: cell-based, mice; conditions: 0 min and 30 min after washing
Method: To assess the effects of proteases on excitability of nociceptors, DRG neurons were preincubated with trypsin, cathepsin S, elastase or vehicle (control), washed, and rheobase and action potential discharge at a current of twice rheobase were measured at 0 min or 30 min after washing.
DRG (T9-T13) from C57BL/6 mice were digested by incubation in collagenase (1 mg/ml, Worthington Biochemical, Lakewood, N.J.) and dispase (4 mg/ml, Roche Life Science, Indianapolis, Ind.) for 10 min at 37° C., and were dispersed by trituration with a fire-polished Pasteur pipette. Cells were plated onto coverslips coated with laminin (0.017 mg/ml) and poly-D-lysine (2 mg/ml) in 24-well plates. […]
Neuronal excitability was assessed by perforated patch-clamp recordings with amphotericin B (240 μg/ml) from small diameter neurons (<30 pF capacitance) in current clamp mode at room temperature. Only neurons with resting membrane potentials more negative than −40 mV were analyzed. Changes in excitability were quantified by measuring rheobase (minimum current to fire action potential) and numbers of action potentials discharged at twice rheobase. […]
Results are expressed as mean±SE. […]

[7] = system: PAR2; assay: BRET receptor trafficking, PAR2-RLuc8 with early endosomal marker Rab5a-venus in HEK293 cells; format: cell-based; conditions: trypsin 10 nM
Method: as §2, §3

B1: cathepsin S: biased agonist protease of PAR2 (protein, UniProt P25774 115-331, looked up)
Cathepsin S: LPDSVDWREKGCVTEVKYQGSCGACWAFSAVGALEAQLKLKTGKLVSLSAQNLVDCSTEKYGNKGCNGGFMTTAFQYIIDNKGIDSDASYPYKAMDQKCQYDSKYRAATCSKYTELPYGREDVLKEAVANKGPVSVGVDARHPSFFLYRSGVYYEPSCTQNVNHGVLVVGYGDLNGKEYWLVKNSWGHNFGEEGYIRMARNKGNHCGIASFPSYPEI
[1]
  Mechanical hyperalgesia after intraplantar injection of protease: caused mechanical hyperalgesia of the ipsilateral paw that was sustained for at least 4 h
[2]
  Change in BRET between PAR2 and plasma membrane marker upon agonist stimulation: not observed
[3]
  Edema after intraplantar injection of protease: edema of the ipsilateral paw that was maximal after 4 h
[4]
  PAR2 endocytosis induced by agonist: did not induce PAR2 endocytosis
[5]
  Signals generated by protease in subcellular compartments: only activated cAMP and PKC at the plasma membrane and ERK in the cytosol
[6]
  Effect of protease on excitability (rheobase) of DRG neurons: immediate increase in excitability
[7]
  Change in BRET between PAR2 and early endosomal marker upon agonist stimulation: not observed

— patent US20190298743A1, “TREATMENT OF PAIN” (Takeda Pharmaceutical Company Limited, priority 2016, published 2019)
